Results on 1 substance are retold here after article PMC9960230.

pKd: −log10 of the molar value.

Common to all, as to settings: domain or fragment
Assay [1] concerns the target Recombinant human FcRn conjugated with biotin (human) (UniProt P55899). As to the kind of experiment: SPR; native Fc, pH 5.4.
Assay [2] has the same target. As to the kind of experiment: SPR; heme-ox-exposed Fc, pH 5.4.
Assay [3] shares this target. As to the kind of experiment: SPR; heme (Fe3+)-exposed Fc, pH 5.4.

Sequence of Recombinant human FcRn conjugated with biotin (human) (P55899 24-297): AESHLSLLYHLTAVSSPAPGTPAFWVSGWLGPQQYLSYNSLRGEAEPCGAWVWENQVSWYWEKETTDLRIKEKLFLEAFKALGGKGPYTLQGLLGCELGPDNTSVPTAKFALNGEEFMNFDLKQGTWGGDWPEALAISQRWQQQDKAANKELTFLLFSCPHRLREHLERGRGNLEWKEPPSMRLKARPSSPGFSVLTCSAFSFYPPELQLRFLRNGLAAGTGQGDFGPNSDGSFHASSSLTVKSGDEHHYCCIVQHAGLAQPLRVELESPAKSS

Turning to “Fc-γ fragments obtained by papain digestion of polyclonal human IgG”, the pKd in assay [1] is 8.04; in assay [2] it was 8.10; in assay [3], 8.11. The koff amounted to 0.00415 s⁻¹ in assay [1], 0.00367 s⁻¹ in assay [2] and 0.004 s⁻¹ in assay [3].
